To fix the notation:
T1: EsCas13d, nuclease-dead (Eubacterium siraeum, UniProt B0MS50, R295A;H300A;R849A;H854A)
T1 sequence: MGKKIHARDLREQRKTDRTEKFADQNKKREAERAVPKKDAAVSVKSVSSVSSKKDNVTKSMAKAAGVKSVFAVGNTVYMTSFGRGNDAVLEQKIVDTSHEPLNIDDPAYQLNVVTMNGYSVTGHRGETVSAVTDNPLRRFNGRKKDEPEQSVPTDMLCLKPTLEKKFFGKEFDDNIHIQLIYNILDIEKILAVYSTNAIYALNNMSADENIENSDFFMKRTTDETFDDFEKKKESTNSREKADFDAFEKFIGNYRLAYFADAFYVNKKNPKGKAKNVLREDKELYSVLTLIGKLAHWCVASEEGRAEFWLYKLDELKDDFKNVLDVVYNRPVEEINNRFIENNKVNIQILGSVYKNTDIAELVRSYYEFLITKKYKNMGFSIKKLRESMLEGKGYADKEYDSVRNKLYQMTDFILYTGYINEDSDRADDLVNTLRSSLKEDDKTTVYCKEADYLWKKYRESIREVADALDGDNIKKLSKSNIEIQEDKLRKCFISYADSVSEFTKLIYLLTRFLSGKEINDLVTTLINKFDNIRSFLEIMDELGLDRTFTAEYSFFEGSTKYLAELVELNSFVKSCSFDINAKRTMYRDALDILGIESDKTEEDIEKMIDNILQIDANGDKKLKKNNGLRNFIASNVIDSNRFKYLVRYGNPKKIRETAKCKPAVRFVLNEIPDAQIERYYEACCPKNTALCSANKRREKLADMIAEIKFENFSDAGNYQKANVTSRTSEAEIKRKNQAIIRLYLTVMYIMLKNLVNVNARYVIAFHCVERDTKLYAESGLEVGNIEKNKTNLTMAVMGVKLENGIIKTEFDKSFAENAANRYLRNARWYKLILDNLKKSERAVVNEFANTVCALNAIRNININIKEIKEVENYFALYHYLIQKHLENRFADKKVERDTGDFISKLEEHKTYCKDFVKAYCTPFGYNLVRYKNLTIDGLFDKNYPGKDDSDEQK

B1: target 1 insA 3' of 17,insA 3' of 5 (mixed)
RNA 1: CACCCGUGCAAAAAUGCAGGGGUCUAAAACUGAGCGGAUAACCUCUCUAUGG
RNA 2: GGGAAUGGAUCCACAUCUACGAAUUCGUACCAUAGAAGAGGUUAUCCGACUCACCGAGAUCGGAAGAGCACACGU
B2: target 1 insC 3' of 10,insC 3' of 3 (mixed)
RNA 1: CACCCGUGCAAAAAUGCAGGGGUCUAAAACUGAGCGGAUAACCUCUCUAUGG
RNA 2: GGGAAUGGAUCCACAUCUACGAAUUCGUACCAUAGAGAGGUUCAUCCGCUCCACCGAGAUCGGAAGAGCACACGU
B3: target 1 insA 3' of 10,insG 3' of 9 (mixed)
RNA 1: CACCCGUGCAAAAAUGCAGGGGUCUAAAACUGAGCGGAUAACCUCUCUAUGG
RNA 2: GGGAAUGGAUCCACAUCUACGAAUUCGUACCAUAGAGAGGUUAAGUCCGCUCACCGAGAUCGGAAGAGCACACGU
B4: target 1 C6U,G13U (mixed)
RNA 1: CACCCGUGCAAAAAUGCAGGGGUCUAAAACUGAGCGGAUAACCUCUCUAUGG
RNA 2: GGGAAUGGAUCCACAUCUACGAAUUCGUACCAUAGAGAUGUUAUCUGCUCACCGAGAUCGGAAGAGCACACGU
B5: target 1 insA 3' of 15,insU 3' of 2 (mixed)
RNA 1: CACCCGUGCAAAAAUGCAGGGGUCUAAAACUGAGCGGAUAACCUCUCUAUGG
RNA 2: GGGAAUGGAUCCACAUCUACGAAUUCGUACCAUAGAGAAGGUUAUCCGCUCUACCGAGAUCGGAAGAGCACACGU
B6: target 1 insC 3' of 20,insC 3' of 3 (mixed)
RNA 1: CACCCGUGCAAAAAUGCAGGGGUCUAAAACUGAGCGGAUAACCUCUCUAUGG
RNA 2: GGGAAUGGAUCCACAUCUACGAAUUCGUACCACUAGAGAGGUUAUCCGCUCCACCGAGAUCGGAAGAGCACACGU
B7: target 1 C7U,A16G (mixed)
RNA 1: CACCCGUGCAAAAAUGCAGGGGUCUAAAACUGAGCGGAUAACCUCUCUAUGG
RNA 2: GGGAAUGGAUCCACAUCUACGAAUUCGUACCAUAGGGAGGUUAUUCGCUCACCGAGAUCGGAAGAGCACACGU
B8: target 1 insU 3' of 12,insA 3' of 2 (mixed)
RNA 1: CACCCGUGCAAAAAUGCAGGGGUCUAAAACUGAGCGGAUAACCUCUCUAUGG
RNA 2: GGGAAUGGAUCCACAUCUACGAAUUCGUACCAUAGAGAGGUUUAUCCGCUCAACCGAGAUCGGAAGAGCACACGU
B9: target 1 insA 3' of 4,insA 3' of 4 (mixed)
RNA 1: CACCCGUGCAAAAAUGCAGGGGUCUAAAACUGAGCGGAUAACCUCUCUAUGG
RNA 2: GGGAAUGGAUCCACAUCUACGAAUUCGUACCAUAGAGAGGUUAUCCGCAAUCACCGAGAUCGGAAGAGCACACGU
B10: target 1 C7U,G13C (mixed)
RNA 1: CACCCGUGCAAAAAUGCAGGGGUCUAAAACUGAGCGGAUAACCUCUCUAUGG
RNA 2: GGGAAUGGAUCCACAUCUACGAAUUCGUACCAUAGAGACGUUAUUCGCUCACCGAGAUCGGAAGAGCACACGU
B11: target 1 A9G,C21U (mixed)
RNA 1: CACCCGUGCAAAAAUGCAGGGGUCUAAAACUGAGCGGAUAACCUCUCUAUGG
RNA 2: GGGAAUGGAUCCACAUCUACGAAUUCGUACUAUAGAGAGGUUGUCCGCUCACCGAGAUCGGAAGAGCACACGU
B12: target 1 complement block 7-9 (mixed)
RNA 1: CACCCGUGCAAAAAUGCAGGGGUCUAAAACUGAGCGGAUAACCUCUCUAUGG
RNA 2: GGGAAUGGAUCCACAUCUACGAAUUCGUACCAUAGAGAGGUUUAGCGCUCACCGAGAUCGGAAGAGCACACGU
B13: target 1 insG 3' of 2,insU 3' of 1 (mixed)
RNA 1: CACCCGUGCAAAAAUGCAGGGGUCUAAAACUGAGCGGAUAACCUCUCUAUGG
RNA 2: GGGAAUGGAUCCACAUCUACGAAUUCGUACCAUAGAGAGGUUAUCCGCUCGAUCCGAGAUCGGAAGAGCACACGU

This data set deals with T1, EsCas13d, nuclease-dead. Kind of data set: crRNA (strand 1, pre-loaded); Mg2+; 40 mM Tris-HCl pH 7.5, 150 mM NaCl, 6 mM MgCl2, 1 mM DTT, 0.1% Tween-20, 0.2 mg/ml BSA; 25 C; 10 min per concentration, then washed. As to conditions: tags: His6-TwinStrep-SUMO cleaved; N-terminal SNAP kept (SNAP-Surface 488); label: 3' end held by stalled T7 RNA polymerase.
The Kd is the concentration at which binding is half-saturated. The low end stands for a tighter complex, the high end for a looser complex. Consider B1, for which the Kd came to 10.6 ± 1.1 nM.
Take B2: binding was characterised by a dissociation constant (Kd) of 20.2 ± 3.1 nM.
On to B3, for which binding was put at a Kd of 18.3 ± 0.8 nM.
The value for B4 was 38 ± 5 nM; that for B5 was 6.5 ± 0.4 nM.
As to B6, the affinity, expressed as Kd, was 8.5 ± 0.4 nM.
The value for B7 was 29.9 ± 2.6 nM; that for B8 was 7 ± 0.4 nM.
Consider B9, for which the dissociation constant (Kd) worked out at 5.91 ± 0.24 nM.
Under B10 stands around 70 nM; under B11, 9 ± 0.5 nM; under B12, 6.54 ± 0.23 nM.
The value for B13 was 9.9 ± 0.9 nM.

Values taken from PMC10786891, “Massively parallel profiling of RNA-targeting CRISPR-Cas13d”.
